Test results from US20070041992A1.

Biological target: low density lipoprotein receptor-related protein (LRP-1) on rat liver cells (rat) (UniProt G3V928)
Experiment: cell-based or functional assay

Chain of low density lipoprotein receptor-related protein (LRP-1) on rat liver cells (rat) (G3V928 20-4545): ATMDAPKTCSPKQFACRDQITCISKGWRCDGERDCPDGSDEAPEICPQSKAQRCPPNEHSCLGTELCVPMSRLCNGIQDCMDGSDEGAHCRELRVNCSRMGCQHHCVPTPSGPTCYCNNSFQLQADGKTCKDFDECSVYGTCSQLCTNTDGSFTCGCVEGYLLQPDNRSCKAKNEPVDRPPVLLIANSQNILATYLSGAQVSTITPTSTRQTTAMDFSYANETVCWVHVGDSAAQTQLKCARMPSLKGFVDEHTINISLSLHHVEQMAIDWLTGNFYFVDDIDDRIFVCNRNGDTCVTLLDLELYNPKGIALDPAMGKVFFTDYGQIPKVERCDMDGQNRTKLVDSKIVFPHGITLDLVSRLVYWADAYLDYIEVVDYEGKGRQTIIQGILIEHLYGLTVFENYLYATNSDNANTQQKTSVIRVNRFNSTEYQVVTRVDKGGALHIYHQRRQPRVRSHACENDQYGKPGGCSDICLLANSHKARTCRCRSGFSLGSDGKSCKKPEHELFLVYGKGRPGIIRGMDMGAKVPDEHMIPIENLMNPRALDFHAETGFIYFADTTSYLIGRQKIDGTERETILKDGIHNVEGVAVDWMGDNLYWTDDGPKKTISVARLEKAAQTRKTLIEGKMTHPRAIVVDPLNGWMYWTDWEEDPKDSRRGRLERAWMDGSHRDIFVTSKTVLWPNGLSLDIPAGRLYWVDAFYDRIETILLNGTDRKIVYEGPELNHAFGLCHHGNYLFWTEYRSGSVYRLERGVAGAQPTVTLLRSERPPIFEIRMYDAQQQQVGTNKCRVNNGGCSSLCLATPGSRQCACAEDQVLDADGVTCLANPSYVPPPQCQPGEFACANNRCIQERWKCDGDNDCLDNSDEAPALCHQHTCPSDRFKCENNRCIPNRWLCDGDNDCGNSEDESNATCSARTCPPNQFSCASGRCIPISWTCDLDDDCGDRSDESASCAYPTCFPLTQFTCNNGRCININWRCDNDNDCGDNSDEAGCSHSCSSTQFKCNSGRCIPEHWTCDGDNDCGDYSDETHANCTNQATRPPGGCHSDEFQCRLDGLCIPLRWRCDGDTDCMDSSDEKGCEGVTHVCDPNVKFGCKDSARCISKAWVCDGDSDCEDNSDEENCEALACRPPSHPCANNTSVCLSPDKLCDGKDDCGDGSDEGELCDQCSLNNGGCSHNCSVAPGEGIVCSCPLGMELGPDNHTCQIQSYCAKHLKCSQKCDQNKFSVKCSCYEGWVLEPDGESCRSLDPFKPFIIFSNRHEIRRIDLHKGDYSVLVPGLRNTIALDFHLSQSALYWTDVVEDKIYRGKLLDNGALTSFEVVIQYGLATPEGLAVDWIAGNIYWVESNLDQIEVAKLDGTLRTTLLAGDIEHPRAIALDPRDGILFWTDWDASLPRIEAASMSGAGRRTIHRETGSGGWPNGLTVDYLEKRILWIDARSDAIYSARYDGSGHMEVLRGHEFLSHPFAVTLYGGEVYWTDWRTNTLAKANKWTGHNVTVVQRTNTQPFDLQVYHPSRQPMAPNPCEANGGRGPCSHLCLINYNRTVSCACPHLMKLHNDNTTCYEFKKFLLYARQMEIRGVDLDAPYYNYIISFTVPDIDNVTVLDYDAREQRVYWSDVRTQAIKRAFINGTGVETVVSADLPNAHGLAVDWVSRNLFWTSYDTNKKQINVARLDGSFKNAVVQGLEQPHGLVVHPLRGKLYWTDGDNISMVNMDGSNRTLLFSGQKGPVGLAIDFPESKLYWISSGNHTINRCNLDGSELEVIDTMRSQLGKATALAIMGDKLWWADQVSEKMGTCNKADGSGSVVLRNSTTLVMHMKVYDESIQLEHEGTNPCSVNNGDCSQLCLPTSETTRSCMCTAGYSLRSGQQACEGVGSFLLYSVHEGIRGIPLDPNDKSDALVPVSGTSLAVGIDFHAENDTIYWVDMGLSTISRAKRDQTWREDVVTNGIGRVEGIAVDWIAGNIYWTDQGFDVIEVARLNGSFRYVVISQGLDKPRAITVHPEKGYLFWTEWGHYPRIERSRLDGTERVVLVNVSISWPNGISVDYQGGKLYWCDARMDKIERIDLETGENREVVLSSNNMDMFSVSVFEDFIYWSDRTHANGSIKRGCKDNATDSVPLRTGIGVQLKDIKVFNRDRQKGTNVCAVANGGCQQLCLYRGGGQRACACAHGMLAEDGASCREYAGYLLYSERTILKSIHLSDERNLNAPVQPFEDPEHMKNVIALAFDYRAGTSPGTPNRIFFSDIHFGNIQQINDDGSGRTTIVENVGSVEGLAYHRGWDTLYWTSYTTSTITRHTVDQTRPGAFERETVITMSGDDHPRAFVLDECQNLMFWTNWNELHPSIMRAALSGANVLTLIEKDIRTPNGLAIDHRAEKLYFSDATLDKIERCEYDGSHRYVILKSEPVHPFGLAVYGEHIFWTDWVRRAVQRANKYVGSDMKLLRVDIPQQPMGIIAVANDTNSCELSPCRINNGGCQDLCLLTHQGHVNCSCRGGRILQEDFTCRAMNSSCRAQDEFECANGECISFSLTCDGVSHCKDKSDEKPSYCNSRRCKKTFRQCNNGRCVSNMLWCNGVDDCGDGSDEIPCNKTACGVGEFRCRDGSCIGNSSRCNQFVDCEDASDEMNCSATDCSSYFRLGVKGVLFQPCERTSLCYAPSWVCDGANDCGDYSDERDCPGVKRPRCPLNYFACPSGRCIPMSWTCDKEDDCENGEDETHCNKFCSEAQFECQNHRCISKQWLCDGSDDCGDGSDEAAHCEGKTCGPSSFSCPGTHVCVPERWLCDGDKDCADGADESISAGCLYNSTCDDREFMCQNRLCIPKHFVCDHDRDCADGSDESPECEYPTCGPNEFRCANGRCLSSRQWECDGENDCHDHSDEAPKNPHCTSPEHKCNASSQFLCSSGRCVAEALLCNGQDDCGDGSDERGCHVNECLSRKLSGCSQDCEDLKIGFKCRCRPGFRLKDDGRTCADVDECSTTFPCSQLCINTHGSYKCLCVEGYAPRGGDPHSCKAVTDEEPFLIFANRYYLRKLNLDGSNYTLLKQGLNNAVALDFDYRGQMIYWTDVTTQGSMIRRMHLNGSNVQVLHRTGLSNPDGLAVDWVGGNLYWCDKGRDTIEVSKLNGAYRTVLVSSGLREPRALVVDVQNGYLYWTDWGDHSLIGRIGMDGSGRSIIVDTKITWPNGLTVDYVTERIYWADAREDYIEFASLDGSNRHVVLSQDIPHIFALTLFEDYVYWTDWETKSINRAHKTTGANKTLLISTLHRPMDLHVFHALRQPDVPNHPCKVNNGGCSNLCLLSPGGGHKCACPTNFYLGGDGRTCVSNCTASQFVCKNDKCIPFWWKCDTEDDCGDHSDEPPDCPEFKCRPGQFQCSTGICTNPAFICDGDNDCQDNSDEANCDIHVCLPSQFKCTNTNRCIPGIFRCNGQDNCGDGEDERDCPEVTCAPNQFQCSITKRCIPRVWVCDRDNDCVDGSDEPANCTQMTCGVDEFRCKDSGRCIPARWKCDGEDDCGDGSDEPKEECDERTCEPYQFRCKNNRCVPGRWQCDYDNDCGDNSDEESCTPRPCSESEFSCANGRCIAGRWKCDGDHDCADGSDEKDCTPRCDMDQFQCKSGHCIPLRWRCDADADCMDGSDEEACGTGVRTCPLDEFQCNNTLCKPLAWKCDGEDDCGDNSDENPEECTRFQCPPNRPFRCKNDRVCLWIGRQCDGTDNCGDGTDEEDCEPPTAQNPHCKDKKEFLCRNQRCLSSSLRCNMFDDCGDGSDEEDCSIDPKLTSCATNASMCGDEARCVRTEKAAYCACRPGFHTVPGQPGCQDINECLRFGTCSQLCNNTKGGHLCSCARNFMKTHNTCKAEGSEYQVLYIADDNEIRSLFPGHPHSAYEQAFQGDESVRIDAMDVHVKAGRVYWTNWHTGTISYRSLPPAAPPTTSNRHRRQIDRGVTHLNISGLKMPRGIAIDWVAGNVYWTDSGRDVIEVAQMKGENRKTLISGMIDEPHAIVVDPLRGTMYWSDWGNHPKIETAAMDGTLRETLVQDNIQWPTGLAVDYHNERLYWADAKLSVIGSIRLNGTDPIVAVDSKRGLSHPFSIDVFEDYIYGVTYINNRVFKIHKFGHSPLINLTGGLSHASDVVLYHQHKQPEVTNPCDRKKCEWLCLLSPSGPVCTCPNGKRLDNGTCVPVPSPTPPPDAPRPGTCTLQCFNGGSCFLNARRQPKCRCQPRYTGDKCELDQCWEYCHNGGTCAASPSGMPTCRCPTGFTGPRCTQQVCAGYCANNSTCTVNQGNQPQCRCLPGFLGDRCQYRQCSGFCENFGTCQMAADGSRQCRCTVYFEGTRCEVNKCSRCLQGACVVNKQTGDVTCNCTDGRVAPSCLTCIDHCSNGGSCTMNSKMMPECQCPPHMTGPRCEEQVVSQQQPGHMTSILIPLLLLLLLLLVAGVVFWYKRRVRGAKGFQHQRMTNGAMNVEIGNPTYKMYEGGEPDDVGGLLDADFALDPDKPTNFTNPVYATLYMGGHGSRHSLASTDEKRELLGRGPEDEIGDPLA

P. falciparum CS protein CS27IVC-His6 (AA 27-123[NANPNVDP]3[NANP]21300-411) (from UniProt P05691 27-123) (ligand)
elevation of the cAMP level in Kupffer cells: 3 fold
